Six proteins from patent publication US20040265965 can be followed below.

The chains are these.
B1: 452H,NINL soluble BACE (R42L43P44R45 changed to NINL, histidine tag), baculovirus/Sf9 (protein)
chain: NINLETDEEPEEPGRRGSFVEMVDNLRGKSGQGYYVEMTVGSPPQTLNILVDTGSSNFAVGAAPHPFLHRYYQRQLSSTYRDLRKGVYVPYTQGKWEGELGTDLVSIPHGPNVTVRANIAAITESDKFFINGSNWEGILGLAYAEIARPDDSLEPFFDSLVKQTHVPNLFSLQLCGAGFPLNQSEVLASVGGSMIIGGIDHSLYTGSLWYTPIRREWYYEVIIVRVEINGQDLKMDCKEYNYDKSIVDSGTTNLRLPKKVFEAAVKSIKAASSTEKFPDGFWLGEQLVCWQAGTTPWNIFPVISLYLMGEVTNQSFRITILPQQYLRPVEDVATSQDDCYKFAISQSSTGTVMGAVIMEGFYVVFDRARKRIGFAVSACHVHDEFRTAAVEGPFVTLDMEDCGYNIPQTDE
B2: Δ2,3-452H,NINL soluble BACE (S174I, N223A, R42L43P44R45 changed to NINL, histidine tag), baculovirus/Sf9 (protein)
chain: B1 chain with S133I, N182A
B3: Δ2,3-452Flag soluble BACE (S174I, N223A) (protein)
chain: TQHGIRLPLRSGLGGAPLGLRLPRETDEEPEEPGRRGSFVEMVDNLRGKSGQGYYVEMTVGSPPQTLNILVDTGSSNFAVGAAPHPFLHRYYQRQLSSTYRDLRKGVYVPYTQGKWEGELGTDLVSIPHGPNVTVRANIAAITESDKFFINGINWEGILGLAYAEIARPDDSLEPFFDSLVKQTHVPNLFSLQLCGAGFPLAQSEVLASVGGSMIIGGIDHSLYTGSLWYTPIRREWYYEVIIVRVEINGQDLKMDCKEYNYDKSIVDSGTTNLRLPKKVFEAAVKSIKAASSTEKFPDGFWLGEQLVCWQAGTTPWNIFPVISLYLMGEVTNQSFRITILPQQYLRPVEDVATSQDDCYKFAISQSSTGTVMGAVIMEGFYVVFDRARKRIGFAVSACHVHDEFRTAAVEGPFVTLDMEDCGYNIPQTD
B4: Δ3-452Flag soluble BACE (N223A) (protein)
chain: B3 chain with I153S
B5: 452Flag soluble BACE (membrane truncated BACE with C-terminal Flag epitope tag, fully glycosylated) (protein)
chain: B3 chain with I153S, A202N
B6: Δ2,3-452H soluble BACE (S174I, N223A, histidine tag), baculovirus/Sf9 (protein)
chain: TQHGIRLPLRSGLGGAPLGLRLPRETDEEPEEPGRRGSFVEMVDNLRGKSGQGYYVEMTVGSPPQTLNILVDTGSSNFAVGAAPHPFLHRYYQRQLSSTYRDLRKGVYVPYTQGKWEGELGTDLVSIPHGPNVTVRANIAAITESDKFFINGINWEGILGLAYAEIARPDDSLEPFFDSLVKQTHVPNLFSLQLCGAGFPLAQSEVLASVGGSMIIGGIDHSLYTGSLWYTPIRREWYYEVIIVRVEINGQDLKMDCKEYNYDKSIVDSGTTNLRLPKKVFEAAVKSIKAASSTEKFPDGFWLGEQLVCWQAGTTPWNIFPVISLYLMGEVTNQSFRITILPQQYLRPVEDVATSQDDCYKFAISQSSTGTVMGAVIMEGFYVVFDRARKRIGFAVSACHVHDEFRTAAVEGPFVTLDMEDCGYNIPQTDE

Positions count from the first letter of the chain named. Names and notes keep the numbering of the source. Values joined by “and” are separate entries in the source; they are usually repeats but may differ in a detail not shown here. Identical values can stand only once.

The target in the data set is MBP-C125Swe (maltose binding protein fused to the C-terminal 125 amino acids of the Swedish variant of APP), P05067.
MBP-C125Swe (maltose binding protein fused to the C-terminal 125 amino acids of the Swedish variant of APP), P05067, sequence (P05067 whole entry, looked up, change not shown, the tested form may be a part): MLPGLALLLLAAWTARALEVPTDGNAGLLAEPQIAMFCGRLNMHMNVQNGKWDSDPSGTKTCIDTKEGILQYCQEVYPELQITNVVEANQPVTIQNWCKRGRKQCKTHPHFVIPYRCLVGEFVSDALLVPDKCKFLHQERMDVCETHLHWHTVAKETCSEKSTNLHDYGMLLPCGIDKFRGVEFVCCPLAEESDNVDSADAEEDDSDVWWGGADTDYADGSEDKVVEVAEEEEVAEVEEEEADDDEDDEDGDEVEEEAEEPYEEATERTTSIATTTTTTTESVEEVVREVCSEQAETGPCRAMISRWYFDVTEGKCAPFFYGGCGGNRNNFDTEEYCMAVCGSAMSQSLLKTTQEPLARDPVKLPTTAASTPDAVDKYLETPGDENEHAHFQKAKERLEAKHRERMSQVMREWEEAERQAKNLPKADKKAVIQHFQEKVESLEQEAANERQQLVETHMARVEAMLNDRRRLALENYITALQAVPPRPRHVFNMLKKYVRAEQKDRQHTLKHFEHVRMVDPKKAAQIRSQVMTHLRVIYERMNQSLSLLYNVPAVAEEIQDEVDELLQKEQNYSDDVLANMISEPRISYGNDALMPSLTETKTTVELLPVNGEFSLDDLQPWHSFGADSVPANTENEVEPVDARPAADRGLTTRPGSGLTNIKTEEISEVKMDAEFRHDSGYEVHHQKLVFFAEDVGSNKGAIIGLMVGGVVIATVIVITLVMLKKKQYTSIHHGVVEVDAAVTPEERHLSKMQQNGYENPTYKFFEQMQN
As for B1, the Enzyme activity entry is listed as “good activity was obtained for all samples tested”.
For the protein B2, the Enzyme activity result is “good activity was obtained for all samples tested”.
B3: the Activity (pM/h/ng enz) was 15800 pM/h/ng enz and 15700 pM/h/ng enz; the Cleavage Product (pM) is 109 pM and 108 pM; the “Substrate Conversion (%)” value is 5.19% and 5.16%; the specific activity entry is “all three proteins (452 Flag, Δ3-452Flag and Δ2,3-452Flag) had similar specific activities”.
B4: the Activity (pM/h/ng enz) was 19100 pM/h/ng enz and 20200 pM/h/ng enz; the Cleavage Product (pM) was 126 pM and 119 pM; the “Substrate Conversion (%)” value was 5.68% and 6.01%; the specific activity result is “all three proteins (452 Flag, Δ3-452Flag and Δ2,3-452Flag) had similar specific activities”.
With B5, the Activity (pM/h/ng enz) was 14300 pM/h/ng enz and 15200 pM/h/ng enz; the Cleavage Product (pM) is 85 pM and 90 pM; the “Substrate Conversion (%)” value was 4.05% and 4.30%; the specific activity result is “all three proteins (452 Flag, Δ3-452Flag and Δ2,3-452Flag) had similar specific activities”.
With B6, the Enzyme activity result is on record as “good activity was obtained for all samples tested”.
